Patent publication US11175289B2, “Application of TRPM8 protein, related peptide fragment and their antibodies” (priority 2016, dated 2021)
“Also recorded” adds a separate entry of the source.

Tests used:
[1] = tested on: T lymphocyte in prostate of the modeling animal; test: CD3 immunofluorescence staining of prostate tissue; type: in vivo, rat; settings: SD rats immunized with antigen combined with CFA
Excerpt: (§1) Experiment is designed and performed as follows. Firstly, pure TRPM8 protein is combined with Complete Freund's adjuvant (CFA) to establish an animal model of CP/CPPS. The animal model is compared with a prostatein homogenate modeling method. Meanwhile, TRPM8 in prostatein homogenate is removed by immunomagnetic beads; wherein the prostatein homogenate is molded for serving as a negative control. HE staining method is utilized to evaluate the severity of inflammation in prostate tissue of each modeling group of animal, and the severity of inflammation in prostate tissue is performed with pathological score. CD3 immunofluorescence method is adopted to observe infiltrating of T lymphocyte in prostate of the modeling animal.
In addition, the prostate tissue sections of each group of animals to be tested are taken, baked in an oven for 30 minutes at 60° C., then subjected to CD3 immunofluorescence, and finally added with anti-fluorescence quenching agent for sealing, observed under a microscope, wherein photos are taken.
In order to improve the inflammatory cell containing a plurality of T-lymphocytes, the CD3 molecules are performed with immunofluorescence staining. The results are shown in FIG. 3: A: control blank group; B: protein homogenate group; C: pure TRPM8 protein group; D: TRPM8 protein free homogenate group.

[2] = tested on: prostate tissue of SD rats; test: CP/CPPS animal model by immunization with antigen plus CFA; HE staining and pathological score of prostate; type: in vivo, rat
Excerpt: as §1
Take 40 8-week-old SPF level male SD rats, with weights at a range of 250±20 g. The rats are purchased from Shanghai Sijie laboratory Co., Ltd with a license number of SCXK (Shanghai) 2012-0006. Under an aseptic condition, prostate of an SD rats is taken to prepare prostatein homogenate and TRPM8 removed homogenate protein. Grouping of immune animals in experiments is as follows. 40 8-week-old SD rats are randomly classified into 4 groups, i.e., a homogenate protein group, a TRPM8 removed homogenate protein group, a pure TRPM8 protein group and a control group; wherein each group comprises 10 rats. After 8 weeks of immune, each group of the rats are injected with 10% chloral hydrate on abdomen for anesthesia, and plasma and prostate of each group of rats are respectively collected. Preparation of prostate pathological section: the paraffin embedded prostate sections of the rats in each experimental group are sent to a drying oven, heated under 60° C. for 30 min. […]
According to HE staining result, prostatitis degree of each group of rats are pathologically scored under standards as follows. […]
Each prostate section is scored by three associate professors in pathology according to the standards mentioned above under a randomized and double-blind principle, and an average value calculated is a histological score indicating degree of the prostatitis of the animal. […]

B1: TRPM8 protein: TRPM8 protein purchased from ProteinTech Group; combined with CFA to immunize SD rats (protein)
chain: MSFRAARLSMRNRRNDTLDSTRTLYSSASRSTDLSYSESDLVNFIQANFKKRECVFFTKDSKATENVCKCGYAQSQHMEGTQINQSEKWNYKKHTKEFPTDAFGDIQFETLGKKGKYIRLSCDTDAEILYELLTQHWHLKTPNLVISVTGGAKNFALKPRMRKIFSRLIYIAQSKGAWILTGGTHYGLMKYIGEVVRDNTISRSSEENIVAIGIAAWGMVSNRDTLIRNCDAEGYFLAQYLMDDFTRDPLYILDNNHTHLLLVDNGCHGHPTVEAKLRNQLEKYISERTIQDSNYGGKIPIVCFAQGGGKETLKAINTSIKNKIPCVVVEGSGQIADVIASLVEVEDALTSSAVKEKLVRFLPRTVSRLPEEETESWIKWLKEILECSHLLTVIKMEEAGDEIVSNAISYALYKAFSTSEQDKDNWNGQLKLLLEWNQLDLANDEIFTNDRRWESADLQEVMFTALIKDRPKFVRLFLENGLNLRKFLTHDVLTELFSNHFSTLVYRNLQIAKNSYNDALLTFVWKLVANFRRGFRKEDRNGRDEMDIELHDVSPITRHPLQALFIWAILQNKKELSKVIWEQTRGCTLAALGASKLLKTLAKVKNDINAAGESEELANEYETRAVELFTECYSSDEDLAEQLLVYSCEAWGGSNCLELAVEATDQHFIAQPGVQNFLSKQWYGEISRDTKNWKIILCLFIIPLVGCGFVSFRKKPVDKHKKLLWYYVAFFTSPFVVFSWNVVFYIAFLLLFAYVLLMDFHSVPHPPELVLYSLVFVLFCDEVRQWYVNGVNYFTDLWNVMDTLGLFYFIAGIVFRLHSSNKSSLYSGRVIFCLDYIIFTLRLIHIFTVSRNLGPKIIMLQRMLIDVFFFLFLFAVWMVAFGVARQGILRQNEQRWRWIFRSVIYEPYLAMFGQVPSDVDGTTYDFAHCTFTGNESKPLCVELDEHNLPRFPEWITIPLVCIYMLSTNILLVNLLVAMFGYTVGTVQENNDQVWKFQRYFLVQEYCSRLNIPFPFIVFAYFYMVVKKCFKCCCKEKNMESSVCCFKNEDNETLAWEGVMKENYLVKINTKANDTSEEMRHRFRQLDTKLNDLKGLLKEIANKIK
CD3 immunofluorescence staining of prostate stromal [1]: A large area of CD3 molecule marked by red luminescence
pathogenicity causing CP/CPPS ([2]; SD rats immunized with antigen): successfully induces generation of CP/CPPS; also recorded: strong pathogenicity causing CP/CPPS
inflammatory cell infiltration in prostate (HE staining) ([2]; SD rats immunized with antigen combined with CFA, 8 weeks): a plurality of inflammatory cell infiltration
histological score (pathological evaluation of prostatitis degree) ([2]; SD rats immunized with antigen combined with CFA, 8 weeks, score 0-3, M±SD): 2.7000±0.4830
